# Measurements reported in publication PMC5929103.
# Tests used:
# Test in all cases: enzyme inhibition kinetics
# [1] = molecular target: human cationic trypsin, active (human)
# [2] = molecular target: human mesotrypsin, active (human) (UniProt P35030)
# [3] = molecular target: human anionic trypsin, active (human) (UniProt P07478)
# Sequence of UniProt P07478 (P07478 24-247): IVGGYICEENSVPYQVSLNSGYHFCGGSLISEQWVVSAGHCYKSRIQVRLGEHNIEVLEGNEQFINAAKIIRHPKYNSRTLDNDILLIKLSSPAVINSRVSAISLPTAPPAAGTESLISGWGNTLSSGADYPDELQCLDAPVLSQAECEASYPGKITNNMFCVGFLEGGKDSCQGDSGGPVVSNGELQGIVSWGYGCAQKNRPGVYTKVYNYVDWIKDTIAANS
# Sequence of UniProt P35030 (P35030 81-304): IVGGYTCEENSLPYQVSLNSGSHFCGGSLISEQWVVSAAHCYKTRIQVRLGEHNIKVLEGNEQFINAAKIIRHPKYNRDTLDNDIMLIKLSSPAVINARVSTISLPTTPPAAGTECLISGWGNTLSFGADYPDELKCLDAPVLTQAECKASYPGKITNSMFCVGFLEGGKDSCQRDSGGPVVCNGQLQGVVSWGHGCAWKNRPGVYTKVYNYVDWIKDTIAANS
Substance,Ki [1] [nM],Ki [2] [nM],Ki [3] [nM]
"APPI_(P13W/M17G/I18F/F34V), soluble form (designed binder)",0.019,0.069,0.0038
wild-type amyloid β-protein precursor Kunitz protease inhibitor domain (APPI) (from UniProt P05067 289-344) (domain or fragment),0.0041,,
"APPI_(M17G/I18F/F34V), soluble form (designed binder)",0.023,,
